Source: paper doi:10.1101/2021.03.15.435138

Molecular target: C-terminal hexahistidyl-tagged GluN3A subunit (UniProt Q9R1M7)
Test: pull-down

Chain of C-terminal hexahistidyl-tagged GluN3A subunit (Q9R1M7 24-1135): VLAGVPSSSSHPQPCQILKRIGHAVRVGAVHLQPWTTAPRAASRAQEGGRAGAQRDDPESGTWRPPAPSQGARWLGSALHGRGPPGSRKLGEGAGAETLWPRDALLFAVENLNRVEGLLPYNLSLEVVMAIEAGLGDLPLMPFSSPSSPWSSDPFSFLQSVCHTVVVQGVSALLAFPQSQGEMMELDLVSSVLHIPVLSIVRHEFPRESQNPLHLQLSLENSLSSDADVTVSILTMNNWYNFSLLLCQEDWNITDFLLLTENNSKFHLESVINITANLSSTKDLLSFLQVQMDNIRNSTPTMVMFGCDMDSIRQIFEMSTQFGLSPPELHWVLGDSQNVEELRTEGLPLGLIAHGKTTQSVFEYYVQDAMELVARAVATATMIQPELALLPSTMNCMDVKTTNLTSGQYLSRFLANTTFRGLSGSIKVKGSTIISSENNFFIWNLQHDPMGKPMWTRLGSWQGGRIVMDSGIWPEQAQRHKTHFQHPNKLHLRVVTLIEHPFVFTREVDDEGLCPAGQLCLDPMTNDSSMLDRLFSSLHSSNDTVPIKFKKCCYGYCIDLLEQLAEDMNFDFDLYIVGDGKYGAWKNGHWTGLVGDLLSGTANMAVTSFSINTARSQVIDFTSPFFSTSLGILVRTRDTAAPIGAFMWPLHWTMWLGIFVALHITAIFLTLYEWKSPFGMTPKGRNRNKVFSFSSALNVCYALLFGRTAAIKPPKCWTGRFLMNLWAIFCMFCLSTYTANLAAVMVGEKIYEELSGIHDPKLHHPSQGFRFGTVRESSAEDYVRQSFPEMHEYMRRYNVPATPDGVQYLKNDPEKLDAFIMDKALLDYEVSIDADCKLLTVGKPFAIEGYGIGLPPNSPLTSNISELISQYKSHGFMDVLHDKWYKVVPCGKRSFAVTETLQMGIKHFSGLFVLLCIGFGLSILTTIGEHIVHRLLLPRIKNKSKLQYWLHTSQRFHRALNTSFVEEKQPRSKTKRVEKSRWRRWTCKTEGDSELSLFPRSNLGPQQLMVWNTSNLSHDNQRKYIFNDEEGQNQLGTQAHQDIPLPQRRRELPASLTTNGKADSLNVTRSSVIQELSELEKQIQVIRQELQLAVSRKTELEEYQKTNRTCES

stoichiometry N | Substance
1 | GluN1-1a (splice variant 1a) NMDA receptor subunit, wild type (from UniProt P35439 19-938)
1 | GluN1^1-802, M4-deleted GluN1 (from UniProt P35439 19-802) (domain or fragment)
